{"source": "patent US20200190220A1", "about": "(FRED HUTCHINSON CANCER RESEARCH CENTER, published 2020)", "binders": {"B1": {"name": "dTor_12×31L (non-functionalized, lacking any inserted SH2 domain) (designed binder)", "chain": "GSSMASGISVEELLKLAKAAYYSGTTVEEAYKLALKLGISVEELLKLAEAAYYSGTTVEEAYKLALKLGISVEELLKLAKAAYYSGTTVEEAYKLALKLGISVEELLKLAKAAYYSGTTVEEAYKLALKLGISVEELLKLAEAAYYSGTTVEEAYKLALKLGISVEELLKLAKAAYYSGTTVEEAYKLALKLGISVEELLKLAKAAYYSGTTVEEAYKLALKLGISVEELLKLAEAAYYSGTTVEEAYKLALKLGISVEELLKLAKAAYYSGTTVEEAYKLALKLGISVEELLKLAKAAYYSGTTVEEAYKLALKLGISVEELLKLAEAAYYSGTTVEEAYKLALKLGISVEELLKLAKAAYYSGTTVEEAYKLALKLG"}}, "target": "T1, FITC-labeled peptide with the target sequence for the SH2 domain, EHIpYDEVAAD", "T1 construct": "also called N-Glu-His-Ile-pTyr-Asp-Glu-Val-Ala-Ala-Asp-C", "T1 peptide": "{FITC-Ahx}-EHI[pY]DEVAAD", "experiment": "fluorescence anisotropy of FITC-labeled peptide against rising protein concentration (FIG. 16D)", "source_text": "FIGS. 16A-16E. Functional (peptide-binding) characterization of dTor_12×31L_SH2_single (12× scaffold containing 1 SH2 domain). FIG. 16A: SDS-PAGE electrophoretic analysis of purified dTor_12×31L SH2_single (corresponding to a monomeric cTRP containing 12 repeats, interrupted within repeat #3 by an SH2 domain derived from the human Nck2 adapter protein). FIG. 16B: ribbon diagram of the design of dTor_12×31L SH2_single, visualized from the top and the side of the designed protein repeats. FIG. 16C: Size Exclusion Chromatographic (SEC) separation and analysis of purified dTor_12×31L_SH2_single. Hydrodynamic radii of purified constructs, measured using dynamic light scattering (DLS), is also indicated. FIG. 16D: Binding of peptide corresponding to sequence by dTor_12×31L_SH2_single. Binding measured by monitoring Fluorescence Anisotropy signal from a labeled peptide as a function of increasing protein concentration. […]\nDetermination of ligand binding using Fluorescence Polarization (FP): Each protein construct was 2-fold serially diluted into twelve concentrations, from 23 μM to 0.011 μM, using FP Buffer (20 mM HEPES+150 mM KCl at pH7.4). […] Background was subtracted from raw perpendicular and parallel fluorescence intensity, which were then converted to fluorescence polarization (mP) by the following equation: […]", "note": "Where no end group is shown, it is not given here. [ ]: non-standard residue; d: D form. The star is where a group is joined. FITC = O=C1OC2(c3ccc(O)cc3Oc3cc(O)ccc32)c2ccc(NC(=S)*)cc21; pY = N[C@@H](Cc1ccc(OP(=O)(O)O)cc1)C(=O)O; Ahx = NCCCCCC(=O)O"}
{"binder": "B1", "values": [{"measurement": "binding result", "result": "no binding"}]}
